B2: CCX-CKR2, mouse (on E13 fetal liver cells) (receptor, UniProt P56485 1-362, looked up)
chain: MDVHLFDYAEPGNYSDINWPCNSSDCIVVDTVQCPTMPNKNVLLYTLSFIYIFIFVIGMIANSVVVWVNIQAKTTGYDTHCYILNLAIADLWVVITIPVWVVSLVQHNQWPMGELTCKITHLIFSINLFGSIFFLACMSVDRYLSITYFTGTSSYKKKMVRRVVCILVWLLAFFVSLPDTYYLKTVTSASNNETYCRSFYPEHSIKEWLIGMELVSVILGFAVPFTIIAIFYFLLARAMSASGDQEKHSSRKIIFSYVVVFLVCWLPYHFVVLLDIFSILHYIPFTCQLENVLFTALHVTQCLSLVHCCVNPVLYSFINRNYRYELMKAFIFKYSAKTGLTKLIDASRVSETEYSALEQNTK
notes: whole, on cells; also called SDF-1 receptor on E13 fetal liver cells
B3: CXCR4, human (receptor, UniProt P61073 1-352, looked up)
chain: MEGISIYTSDNYTEEMGSGDYDSMKEPCFREENANFNKIFLPTIYSIIFLTGIVGNGLVILVMGYQKKLRSMTDKYRLHLSVADLLFVITLPFWAVDAVANWYFGNFLCKAVHVIYTVNLYSSVLILAFISLDRYLAIVHATNSQRPRKLLAEKVVYVGVWIPALLLTIPDFIFANVSEADDRYICDRFYPNDLWVVVFQFQHIMVGLILPGIVILSCYCIIISKLSHSKGHQKRKALKTTVILILAFFACWLPYYIGISIDSFILLEIIKQGCEFENTVHKWISITEALAFFHCCLNPILYAFLGAKFKTSAQHALTSVSRGSSLKILSKGKRGGHSSVSTESESSSFHSS
notes: whole, on cells; also called CXCR4 on CEM-NKr cells; leukocyte CXCR4

Experiment [1] addresses T1, CCX-CKR2 (RDC1), human (human, UniProt P25106 1-362).
T1 construct: also called CCX-CR2; SDF1 receptor on MCF-7 cells
Put plainly: competition with 125I I-TAC on MCF-7 cells.
Procedure: (§1) Small molecules were included in some assays, where indicated. In these assays the compound was added to the plate to the indicated concentration followed by the addition of radiolabeled chemokine. All assays were then incubated for 3 hrs at 4° C. with gentle agitation. Following incubation in all binding assays, reactions were aspirated onto PEI-treated GF/B glass filters (Packard) using a cell harvester (Packard) and washed twice (25 mM HEPES, 500 mM NaCl, 1 mM CaCl₂, 5 mM MgCl₂, adjusted to pH 7.1). Scintillant (MicroScint 10, Packard) was added to the wells, and the filters were counted in a Packard Topcount scintillation counter. Data were analyzed and plotted using Prism (GraphPad Prism version 3.0a for Macintosh, GraphPad Software).

Experiment [2] deals with T2, human SDF-1α (human, UniProt P48061-2 22-89).
T2 construct: also called hSDF-1α; SDF-1a
Put plainly: radioligand binding on mouse E13 fetal liver cells.

For experiment [3], the target named is T2, human SDF-1α. Nature of the experiment: DisplaceMax displacement of 125I SDF-1α on CEM-NKr cells (CXCR4).
For experiment [4], the target named is B2. Nature of the experiment: competition with radiolabeled human SDF-1 on mouse E13 fetal liver cells.
The target in experiment [5] is B3. Put plainly: dose response competition with 125I SDF-1α on CEM-NKr cells (CXCR4).
Procedure: Binding Analysis. […] Small molecules were included in some assays, where indicated. In these assays the compound was added to the plate to the indicated concentration followed by the addition of radiolabeled chemokine. All assays were then incubated for 3 hrs at 4° C. with gentle agitation. Following incubation in all binding assays, reactions were aspirated onto PEI-treated GF/B glass filters (Packard) using a cell harvester (Packard) and washed twice (25 mM HEPES, 500 mM NaCl, 1 mM CaCl₂, 5 mM MgCl₂, adjusted to pH 7.1). Scintillant (MicroScint 10, Packard) was added to the wells, and the filters were counted in a Packard Topcount scintillation counter.
The target in experiment [6] is T1, CCX-CKR2 (RDC1), human. Put plainly: homologous competition with 125I I-TAC on MCF-7 cells, medium alone.
Procedure: as §1

T2 sequence (P48061 22-89 limits assumed): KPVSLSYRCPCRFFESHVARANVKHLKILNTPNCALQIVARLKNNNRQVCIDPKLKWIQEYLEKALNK
T1 sequence (P25106 whole entry): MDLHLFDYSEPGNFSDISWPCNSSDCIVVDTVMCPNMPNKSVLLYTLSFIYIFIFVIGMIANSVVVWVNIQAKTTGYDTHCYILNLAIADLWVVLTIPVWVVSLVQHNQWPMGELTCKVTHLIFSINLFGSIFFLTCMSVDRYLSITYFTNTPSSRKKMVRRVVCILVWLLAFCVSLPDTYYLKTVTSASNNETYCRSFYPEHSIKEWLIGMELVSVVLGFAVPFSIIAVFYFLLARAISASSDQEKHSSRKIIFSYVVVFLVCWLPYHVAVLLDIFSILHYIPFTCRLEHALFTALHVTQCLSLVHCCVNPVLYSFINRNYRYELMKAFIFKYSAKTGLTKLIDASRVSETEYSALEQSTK

B1: MIG (ligand, UniProt Q07325 23-125, looked up)
chain: TPVVRKGRCSCISTNQGTIHLQSLKDLKQFAPSPSCEKIEIIATLKNGVQTCLNPDSADVKELIKKWEKQVSQKKKQKNGKKHQKKKVLKVRKSQRSRQKKTT
notes: also called monokine induced by gamma interferon; CXCR3 ligand MIG
Consider B1, for which the binding result in experiment [1] was “no binding”. Turning to B2, the binding result in experiment [2] is recorded as “binds”.

Regarding B3, the binding result in experiment [3] was “binds”.

B4: mouse I-TAC (ligand, UniProt Q9JHH5 22-100, looked up)
chain: FLMFKQGRCLCIGPGMKAVKMAEIEKASVIYPSNGCDKVEVIVTMKAHKRQRCLDPRSKQARLIMQAIEKKNFLRRQNM
notes: also called mI-TAC; I-TAC (mouse protein)
As for B4, in experiment [4], the binding result was “binds”.

B5: human I-TAC (ligand, UniProt O14625 22-94, looked up)
chain: FPMFKRGRCLCIGPGVKAVKVADIEKASIMYPSNNCDKIEVIITLKENKGQRCLNPKSKQARLIIKKVERKNF
notes: also called hI-TAC; CXCL11
Usually IC50 stands for the point on the concentration scale where inhibition reaches its midpoint. Take B5: the binding result was “no binding” in experiment [5] and “binds” in experiment [4]. In experiment [6], this molecule registered an IC50 of 1 nM.

Source of the values: patent US20050074826A1 (published 2005).
